Laboratory results as given in patent US20250164464A1, “LIVER ORGANOID-DERIVED CULTURED HEPATOCYTES” (OSAKA UNIVERSITY, priority 2022, published 2025).

Experiments:
[1] = system: CYP1A2; assay: Induction of drug-metabolizing enzyme in hepatocytes (2D differentiated cells) (Example 6); type: cell-based, human; conditions: 50 μM for 24 hours; added on third, sixth or ninth day of culture; control DMSO
Procedure: (§1) In this Example, the hepatocytes (2D differentiated cells) of the present invention were evaluated for the induction of a drug-metabolizing enzyme on the third day, sixth day, and ninth day of their culture (FIG. 6A). […] After that, the ΔCt value ((Ct value of GAPDH)-(Ct value of target gene)) of each CYP gene was measured for each cell. As a control, dimethylsulfoxide (DMSO) serving as a solvent for each metabolizing enzyme activator was added thereto.

[2] = system: CYP2B6; assay: as above; conditions: 1 mM for 24 hours; added on third, sixth or ninth day of culture; control DMSO
Procedure: as §1

[3] = system: hepatic organoid cells; assay: Screening of monolayer culture conditions, sixth day of culture, quantitative RT-PCR (Example 3); type: cell-based, human; conditions: versus third day of culture
Procedure: Culture conditions up to the sixth day of culture when hepatic organoid cells were subjected to monolayer culture with a HCM™ medium having added thereto each of various factors were investigated in the same manner as in each of Examples 1 and 2.
The hepatic organoid cells were seeded at 3.0×10^5 cells/well on a collagen-coated 48-well plate, and were differentiated with the HCM™ medium having added thereto the EMTi and BMP7 (50 ng/mL) described in Example 2 until the third day of the culture. […] The respective gene expression levels of ALB and CYP3A4 serving as liver cell markers after 6 days of two-dimensional culture were analyzed by a quantitative RT-PCR method. As a comparative example, the gene expression levels of PHHs cultured only with the HCM™ medium and iPS-HLCs were also identified in the same manner as in Example 1.
(§2) The respective gene expression levels of ALB and CYP3A4 were measured by a quantitative RT-PCR method for the respective cells after their culture. A gene expression level when the hepatic organoid cells were cultured only with the HCM™ medium having added thereto the above-mentioned EMTi was defined as a vehicle. Comparison was performed while the gene expression level of ALB of the cells cultured by using the EMTi and BMP7 (50 ng/mL) in combination on the third day of the culture was defined as 1.0.

[4] = system: hepatic organoid cells; assay: Screening of monolayer culture conditions, ninth day of culture, quantitative RT-PCR (Example 4); type: cell-based, human; conditions: EMTi and FGF19 (100 ng/mL)
Procedure: The medium was replaced with a new one on the third day of the culture, and the cells were differentiated with the HCM™ medium having added thereto the EMTi and FGF19 (100 ng/mL) until the sixth day of the culture.
The respective gene expression levels of ALB and CYP3A4 serving as liver cell markers after 9 days of two-dimensional culture were analyzed by a quantitative RT-PCR method.
as §2, with “with the HCM™ medium having added thereto” for “by using”, “FGF19 (100” for “BMP7 (50”, “ng/mL)” for “ng/mL) in combination”, “sixth” for “third”

[5] = system: hepatic organoid cells; assay: Screening of monolayer culture conditions, third day of culture, EMTi and humoral factors, quantitative RT-PCR (Example 2); type: cell-based, human; conditions: combined use of EMTi and BMP7 (50 ng/mL); 72 hours; vehicle (EMTi only)=1.0

COc1ccc2[nH]c([S+]([O-])Cc3ncc(C)c(OC)c3C)nc2c1 (stereo not shown) [omeprazole]
gene expression level of CYP1A2 (ΔCt value) [1]: further enhanced

CCC1(c2ccccc2)C(=O)NC(=O)NC1=O [phenobarbital]
gene expression level of CYP2B6 (ΔCt value) [2]: further enhanced

fibroblast growth factor 19 [FGF19]
gene expression level of CYP3A4 increased by a factor of ([3]; EMTi and FGF19 (100 ng/ml)): about 95 | gene expression level of CYP3A4 increased by a factor of ([4]; versus sixth day of culture): about 40 | gene expression level of ALB ([4]; versus sixth day of culture (=1.0)): increasing tendency

B1: bone morphogenetic protein 7 (protein, UniProt P18075 293-431, looked up)
Bone morphogenetic protein 7: STGSKQRSQNRSKTPKNQEALRMANVAENSSSDQRQACKKHELYVSFRDLGWQDWIIAPEGYAAYYCEGECAFPLNSYMNATNHAIVQTLVHFINPETVPKPCCAPTQLNAISVLYFDDSSNVILKKYRNMVVRACGCH
notes: recombinant protein added as a humoral factor
gene expression level of CYP3A4 increased by a factor of ([3]; EMTi and BMP7 (50 ng/ml)): about 50 | gene expression level of CYP3A4 increased by a factor of [5]: 50
